Measurements reported in EP4790070A1 (Daegu Gyeongbuk Institute of Science and Technology, dated 2026).
Values belong to the binder of their own block, whether it stands above or below them.

Target: T1, human CD24 on human cancer cell lines (MCF7, A549, Huh7) (human, UniProt P25063 27-59)
T1 construct: whole, on cells; Endogenous CD24 on cancer cell lines
T1 chain (looked up): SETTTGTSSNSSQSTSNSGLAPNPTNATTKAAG
Experiment: flow cytometry on fixed MCF-7 cells, FITC anti-human IgG

- binding result: binds
B1: anti-CD24 antibody #2 (Fc fusion)
VH: MAQVQLVQSGGGLIQPGGSLRLSCAASGFTVSSNYMSWVRQAPGKGLEWVSVIYSGGSTYYADSVKGRFTISRDNSKNTLYLQMNSLRAEDTAVYYCAREYGDYFDYWGQGTLVTVSSGS
VL: QSALTQPASVSGSPGQSITISCTGTSSDVGGYDHVSWYQQHPGKAPKLMIYEVTKRPSGVSDRFSGSKSGNTASLTISGLQADDEADYYCSSYAGSNSVLFGGGTQLTVLG
notes: also called Candidate 2

- binding result: binds
B2: anti-CD24 antibody #1 (Fc fusion)
VH: MAQVQLLESGGGVVQPGRSLRLSCAASGFTFSSYGMHWVRQAPGKGLEWVSGMSGDGLATYYADSVKGRFTISRDNSKNTLYLQMNSLRAEDTAVYYCARDSSSWYGGYYYYYGMDVWGQGTTVTVSSGS
VL: DIQMTQSPSSVSASVGDRVTITCRASQGISSWLAWYQQKPGKAPKLLIYAASSLQSGVPPRFSGSGSGTDFTLTISSLQPEDFATYYCQQSYSTPLTFGGGTKVEIKR
notes: also called Candidate 1; αCD24 antibody (#1)
